This passage reports mean detachment force (single molecule) results from PMC12709241.

Like-named read-outs stand apart in the source and are kept apart here.

In experiment [1] the target is microtubules (assembled from porcine brain tubulin, rhodamine-labeled, paclitaxel-stabilised) (porcine) (UniProt P02550). In words: optical trapping.
The target is the same in experiment [2]. In words: optical trapping. The source holds these as a separate data set.

Turning to “KinΔC (mouse KIF5B 1-888 heavy chain with bound full-length KLC2) (from UniProt Q61768 1-888; O88448 1-599) (complex)”, the mean detachment force (single molecule) stood at 6.4 pN in experiment [1] and 6.3 pN in experiment [2].
